Reference: patent US11998613B2, “Antibody-drug conjugates containing an anti-mesothelin antibody and uses thereof” (DEVELOPMENT CENTER FOR BIOTECHNOLOGY, priority 2020, dated 2024)

Experiments:
[1] = tested on: KLM-1 human pancreatic cancer xenograft; test: KLM-1 xenograft model (Example 45); details: 15 mg/kg IV once weekly for 3 weeks
Protocol: Formulations respectively comprising test article DCBPR2002-4(DBCO-vc-MMAE)(15 mg/kg), test article DCBPR2002-4(DBCO-vc-seco-DUBA)(15 mg/kg), test article DCBPR2002-4(DBCO-s-DM1) (15 mg/kg), test article DCBPR2002-2(DBCO-vc-MMAE)-2(DBCO-vc-seco-DUBA) (15 mg/kg), test article DCBPR2002-2(DBCO-vc-MMAE)-2(DBCO-s-DM1) (15 mg/kg), test article DCBPR2002-2(DBCO-vc-seco-DUBA)-2(DBCO-s-DM1) (15 mg/kg), and a corresponding vehicle were formulated by diluting the stock with a 25 mM sodium citrate buffer (pH6.5). Each of the formulations was administered intravenously (IV) once weekly for three weeks.
The KLM-1 cells were maintained in vitro as a monolayer culture in RPMI-1640 medium supplemented with 10% fetal bovine serum at 37° C. in an atmosphere of 5% CO2 in air. The tumor cells were routinely sub-cultured twice weekly by trypsin-EDTA treatment. The cells growing in an exponential growth phase were harvested and counted for tumor inoculation.
Male NOD SCID mice at age of 6-7 weeks were purchased from BioLasco Taiwan Co., LTD. and quarantined for one week. Five mice were housed in each cage. All animals were hosted in the animal facility with a 12-h light/12-h dark cycle at 19-25° C. Animals had free access to rodent pellet foods and water ad libitum.
KLM-1 cells were subcutaneously (SC) implanted (4×10^6 cells in 1:1 PBS/matrigel mixture at 0.1 mL per mouse) into the right flank of male NOD SCID mice. When the average tumor volume had reached 300 mm^3, the mice were randomly divided into 7 groups (N=6 per group). Each of the vehicle, DCBPR2002-4(DBCO-vc-MMAE), DCBPR2002-4(DBCO-vc-seco-DUBA), DCBPR2002-4(DBCO-s-DM1), DCBPR2002-2(DBCO-vc-MMAE)-2(DBCO-vc-seco-DUBA), DCBPR2002-2(DBCO-vc-MMAE)-2(DBCO-s-DM1), DCBPR2002-2(DBCO-vc-seco-DUBA)-2(DBCO-s-DM1) was intravenously administered as 15 mg/kg once weekly for 3 weeks.
The tumor volumes, body weights, mortality, and signs of overt toxicity were monitored and recorded three times weekly for 28 days. Tumor volumes were measured three times per week using calipers and calculated according to the formula: Tumor Volume=(w2×l)/2, where w=width and l=length in diameter (mm) of the tumor. […] One-way ANOVA followed by Dunnett's test was applied for comparison between the vehicle and test article-treated groups. Differences are considered significant at *P<0.05. Animals were weighed three times weekly until the completion of the study.

[2] = tested on: OVCAR-3 human ovarian cancer xenograft; test: OVCAR-3 xenograft model (Example 47); assay type: in vivo, female NOD SCID mice; details: for tumor growth / anti-tumor activity: TGI≥58% considered significant
Protocol: (§1) Five mice were housed in each cage.
(§2) OVCAR-3 cells were subcutaneously (SC) implanted (1×10^7 cells in 1:1 PBS/matrigel mixture at 0.2 mL per mouse) into the right flank of female NOD SCID mice. […] Each of the vehicle, DCBPR2002-4(DBCO-vc-MMAE) (5 and 15 mg/kg), and DCBPR2002-TM (15 mg/kg) was intravenously administered once weekly for 3 weeks.
(§3) Differences are considered significant at *P<0.05.

[3] = tested on: OVCAR-3 human ovarian cancer xenograft; test: OVCAR-3 xenograft model (Example 46); assay type: in vivo, female NOD SCID mice
Protocol: as §1
as §2, with “DCBPR2002-4(DBCO-vc-MMAE) (15” for “DCBPR2002-4(DBCO-vc-MMAE) (5”, “and 30” for “and 15”, “and DCBPR2002-4(DBCO-vc-seco-DUBA)” for “and DCBPR2002-TM”
as §3

[4] = tested on: Pancreatic cancer cell line KLM-1 (MSLN+); test: In vitro cytotoxicity, CellTiter-Glo luminescent cell viability assay, KLM-1; assay type: cell-based, human; details: KLM-1, 72 hours treatment; read-out: Relative IC50 (nM of toxic payload/ADCs)
Protocol: Pancreatic cancer cell line KLM-1 was respectively grown in RPMI 1640 Medium (ATCC modification) medium supplemented with 10% fetal bovine serum. Ovarian carcinoma cell line OVCAR-3 was grown in RPMI 1640 Medium (ATCC modification) medium supplemented with 20% fetal bovine serum. The KLM-1 & OVCAR-3 cell lines were maintained in an atmosphere of 5% CO2 in a humidified 37° C. incubator. The day before treatment, cells were collected and seeded into 96-well plates (4,000 cells per well). On the second day, cells were treated with 3-fold serial dilution concentration of toxic payloads and ADCs. Each treatment was performed in eight triplicate data points. After the treatment of 72 hours, cell viability was assessed by CellTiter-Glo® kit (Promega) according to the manufacturer's instruction. At the end of the incubation, luminescence was measured using a SpectraMax i3x Multi Mode Detection Platform (Molecular Devices). Compound cytotoxicity was evaluated in comparison to cells treated with 0.05% PBS (ADCs) or 0.05% DMSO (toxic payload). IC50 values were calculated by fitting viability data with a four-parameter logistic equation using GraphPad prism 5.0 software.

mesothelin protein = mesothelin protein (Homo sapiens, UniProt Q13421); test: Binding kinetics of anti-mesothelin ADCs by surface plasma resonance (Biacore T100); details: analyte MSLN
Chain of mesothelin protein (Q13421 with tags, fused parts or gaps): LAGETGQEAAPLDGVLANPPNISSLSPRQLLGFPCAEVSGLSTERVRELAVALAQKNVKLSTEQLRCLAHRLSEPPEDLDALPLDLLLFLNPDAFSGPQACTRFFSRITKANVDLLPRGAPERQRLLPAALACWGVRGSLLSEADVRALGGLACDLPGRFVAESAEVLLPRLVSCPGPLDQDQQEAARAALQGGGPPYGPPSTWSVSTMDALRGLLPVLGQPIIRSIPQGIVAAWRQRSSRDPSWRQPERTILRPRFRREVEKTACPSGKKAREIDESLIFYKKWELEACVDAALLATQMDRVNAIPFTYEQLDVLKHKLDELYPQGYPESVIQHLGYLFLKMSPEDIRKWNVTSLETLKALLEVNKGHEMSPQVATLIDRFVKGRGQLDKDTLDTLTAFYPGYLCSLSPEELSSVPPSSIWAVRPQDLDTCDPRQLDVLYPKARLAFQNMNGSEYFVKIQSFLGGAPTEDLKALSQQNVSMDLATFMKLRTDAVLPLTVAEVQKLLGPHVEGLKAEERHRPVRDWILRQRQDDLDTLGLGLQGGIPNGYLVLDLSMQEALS
Protocol: The kinetic constant of the anti-mesothelin ADCs interaction against mesothelin was determined by surface plasma resonance (Biacore® T100, Biacore, Inc., Piscataway, NJ). The flow cell of the CM5 wafer was fixed with approximately 10,000 reaction units (RU) of anti-human IgG-Fc (Biacore®) in 10 mM glycine pH 5.0 at 10 μL/min for 600 seconds. 10 μg/mL of anti-mesothelin antibody and anti-mesothelin ADCs diluted in TBS at 10 μl/min were captured on CM5 chips. Four concentrations (from 3.7 to 100 nM) of human mesothelin recombinant protein and zero concentration (flow buffer) in 100 μl/min binding were recorded in PBS containing 1 mM CaCl2 for 3 minutes. The dissociation of the complex was measured for 10 minutes. The water surface was regenerated by injecting 3 M MgCl2 and 3 mM EGTA at 10 μl/min for 60 seconds. The curve obtained after subtracting the reference and buffer signals was taken into the 1:1 Langmuir binding model using the Biacore® T100 evaluation software (Biacore®).

[5] = 5 mg/kg IV once weekly for 3 weeks
[6] = 15 mg/kg IV once weekly for 3 weeks

B1: DCBPR2002-4(DBCO-vc-MMAE): DCBPR2002-4Az reacted with DBCO-vc-MMAE; trimannosyl-conjugated ADC, DAR 3.89 (conjugate)
VH: QVQLVQSGAEVKKPGASVKVSCKASGYSFTGYTMNWVRQAPGQGLEWMGLITPYNGASSYNQKFRGRVTMTRDTSISTAYMELSRLRSDDTAVYYCARGGYDGRGFDYWGQGTLVTVSS
VL: EIVLTQSPATLSLSPGERATLSCSASSSVSYMHWYQQKPGQAPRLLIYDTSKLASGIPARFSGSGSGTDFTLTISSLEPEDFAVYYCQQWSKHPLTFGQGTKVEIKR
body weight changes [1]: No body weight loss was observed | ranking of efficacy potency [1]: DCBPR2002-4(DBCO-vc-seco-DUBA)=DCBPR2002-2(DBCO-vc-MMAE)-2(DBCO-vc-seco-DUBA)=DCBPR2002-2(DBCO-vc-seco-DUBA)-2(DBCO-s-DM1)>DCBPR2002-4(DBCO-vc-MMAE)>DCBPR2002-2(DBCO-vc-MMAE)-2(DBCO-s-DM1)>DCBPR2002-4(DBCO-s-DM1) | body weight changes [2, 5]: No body weight loss was observed | tumor growth / anti-tumor activity [2, 5]: significantly reduced OVCAR-3 tumor growth | body weight changes [2, 6]: No body weight loss was observed | tumor growth / anti-tumor activity [2, 6]: significantly reduced OVCAR-3 tumor growth | body weight changes [3, 6]: No body weight loss was observed | body weight changes ([3]; 30 mg/kg IV once weekly for 3 weeks): No body weight loss was observed | IC50 [4]: 101 nM | Rmax(RU) (mesothelin protein): 55.99 RU | Ka (mesothelin protein; antibody/ADC captured on CM5 chip via anti-human IgG-Fc): 5.395E+6 | dissociation rate constant (koff) (mesothelin protein; dissociation rate, antibody/ADC captured on CM5 chip): 1.17E−4
